Measured values published in patent publication EP4446411A1, “VARIANT SUBTILISIN PROTEASES” (PEACCEL, priority 2023, dated 2024).

Substrate: C[C@H](NC(=O)CCC(=O)O)C(=O)N[C@@H](C)C(=O)N1CCC[C@H]1C(=O)N[C@@H](Cc1ccccc1)C(=O)Nc1ccc([N+](=O)[O-])cc1
Experiment: Kinetic parameters by release of p-nitroaniline from suc-AAPFpNA (absorbance at 410 nm, Michaelis-Menten fit)
Format: biochemical, Bacillus lentus
Method: Three selected mutants as well as the wild-type and one mutant of the patent application WO1995010591 A1 data set were cloned in a Bacillus vector behind a constitutive APRE promotor and expressed in a protease deficient Bacillus subtilis 168 strain. The transformed strains were grown for 24 hours at 37°C in shake flasks. The subtilisin variants were purified by Ion exchange chromatography followed by […] with a 0-200 mM salt gradient. The activity of the protease variants was determined by the release of the chromophore para-nitroanilide from succinyl-alanine-alanine-proline-phenylalanine-para-nitroanilide (suc-AAPFpNA). The release of the pNA causes an increase in the absorbance at 410 nm, the temporal progression of which is used as a measure of the activity of the enzymes.
The kinetic parameters kcat and Km of the variants were measured using basically the method described in Bonneau, P. R., Graycar, T. P., Estell, D. A., & Jones, J. B. (1991). Alteration of the specificity of subtilisin BPN'by site-directed mutagenesis in its S1 and S1'binding sites. Journal of the American Chemical Society, 113(3), 1026-1030. A small aliquot of purified subtilisin variant was added to a 96 microtiterplate well containing succinyl-L-Ala-L-Ala-L-Pro-L-Phe-p-nitroanilide (SEQ ID NO: 1) dissolved in 0.1M Tris-HCL, pH 8.6. The reaction progress was measured spectrophotometrically at 25°C by monitoring the absorbance of p-nitroaniline at 410nm. The corresponding experimental values were fit to the Michaelis-Menten equation by a regression algorithm. The kcat/KM ratio was obtained by dividing the resulting values. […] Table 2: kinetic parameters kcat and Km of the variants at pH 8.6
The kinetic parameters kcat and Km of the variants were also measured using basically the method described in Bonneau, P. R., Graycar, T. P., Estell, D. A., & Jones, J. B. (1991). Alteration of the specificity of subtilisin BPN'by site-directed mutagenesis in its S1 and S1'binding sites. Journal of the American Chemical Society, 113(3), 1026-1030. A small aliquot of purified subtilisin variant was added to a microtiterplate containing suc-AAPFpNA (SEQ ID NO:1) dissolved in 0.1M glycine pH10. The reaction progress was measured spectrophotometrically by monitoring the absorbance of p-nitroaniline at 410nm. The corresponding experimental values were fit to the Michaelis-Menten equation by a regression algorithm. The kcat/Km ratio was obtained by dividing the resulting values. […] Kcat kcat/km are indicated as % compared to the wild-type (100%). Table 3: kinetic parameters kcat and Km of the variants at pH 10

[1] = other: 0.1M Tris-HCL, pH 8.6, 25°C, pH 8.6, 25.0 °C
[2] = other: 0.1M glycine pH10, pH 10.0

| Protein | Km [1] [µM] | Km [2] [µM] |
| --- | --- | --- |
| Bacillus lentus subtilisin variant N74D/S101A/V102W (control variant of WO1995010591), SEQ ID NO: 3 (Lederbergia lenta; N74D/S101A/V102W) (protein, made in house; host or cells: protease deficient Bacillus subtilis 168) AQSVPWGISRVQAPAAHNRGLTGSGVKVAVLDTGISTHPDLNIRGGASFVPGEPSTQDGNGHGTHVAGTIAALDNSIGVLGVAPSAELYAVKVLGASGSGAWSSIAQGLEWAGNNGMHVANLSLGSPSPSATLEQAVNSATSRGVLVVAASGNSGAGSISYPARYANAMAVGATDQNNNRASFSQYGAGLDIVAPGVNVQSTYPGSTYASLNGTSMATPHVAGAAALVKQKNPSWSNVQIRNHLKNTATSLGSTNLYGSGLVNAEAATR | 290 | 330 |
| Bacillus lentus subtilisin variant N74D/S99G/V102W/S126G/N198A/N212S/T254P, SEQ ID NO: 5 (Lederbergia lenta; N198A/N212S/N74D/S126G/S99G/T254P/V102W) (protein, made in house; host or cells: protease deficient Bacillus subtilis 168) AQSVPWGISRVQAPAAHNRGLTGSGVKVAVLDTGISTHPDLNIRGGASFVPGEPSTQDGNGHGTHVAGTIAALDNSIGVLGVAPSAELYAVKVLGASGGGSWSSIAQGLEWAGNNGMHVANLSLGGPSPSATLEQAVNSATSRGVLVVAASGNSGAGSISYPARYANAMAVGATDQNNNRASFSQYGAGLDIVAPGVAVQSTYPGSTYASLSGTSMATPHVAGAAALVKQKNPSWSNVQIRNHLKNTATSLGSPNLYGSGLVNAEAATR | 50 | 90 |
| Bacillus lentus subtilisin variant N74D/S99G/V102W/S126G/D191E/N198G/N212S/T254P, SEQ ID NO: 4 (Lederbergia lenta; … (protein, made in house; host or cells: protease deficient Bacillus subtilis 168) AQSVPWGISRVQAPAAHNRGLTGSGVKVAVLDTGISTHPDLNIRGGASFVPGEPSTQDGNGHGTHVAGTIAALDNSIGVLGVAPSAELYAVKVLGASGGGSWSSIAQGLEWAGNNGMHVANLSLGGPSPSATLEQAVNSATSRGVLVVAASGNSGAGSISYPARYANAMAVGATDQNNNRASFSQYGAGLEIVAPGVGVQSTYPGSTYASLSGTSMATPHVAGAAALVKQKNPSWSNVQIRNHLKNTATSLGSPNLYGSGLVNAEAATR | 110 | 190 |
